# Experimental data as given in patent publication US20150093802.
# Assays:
# Assay in all cases: one_hybrid
# [1] = system: OZ112 (CF877L) (synthetic); details: bacterial two-hybrid lacZ, SD 0.55
# [2] = system: OZ117 (CF877L) (synthetic); details: bacterial two-hybrid lacZ, SD 0.33
# [3] = system: OZ107 (CF877L) (synthetic); details: bacterial two-hybrid lacZ, SD 0.58
# [4] = system: OZ111 (CF877L) (synthetic); details: bacterial two-hybrid lacZ, SD 1.90; marked + in table
# [5] = system: OZ115 (CF877L) (synthetic); details: bacterial two-hybrid lacZ, SD 0.12
# [6] = system: OZ118 (CF877L) (synthetic); details: bacterial two-hybrid lacZ, SD 0.08
# [7] = system: OZ109 (CF877L) (synthetic); details: bacterial two-hybrid lacZ, SD 0.20
# [8] = system: OZ114 (CF877L) (synthetic); details: bacterial two-hybrid lacZ, SD 0.18
# [9] = system: OZ110 (CF877L) (synthetic); details: bacterial two-hybrid lacZ, SD 0.15; marked + in table
# [10] = system: OZ108 (CF877L) (synthetic); details: bacterial two-hybrid lacZ, SD 0.51
# [11] = system: OZ116 (CF877L) (synthetic); details: bacterial two-hybrid lacZ, SD 0.38
# [12] = system: OZ113 (CF877L) (synthetic); details: bacterial two-hybrid lacZ, SD 0.20
# [13] = system: OZ127 (CF877R) (synthetic); details: bacterial two-hybrid lacZ, SD 0.02
# [14] = system: OZ140 (CF877R) (synthetic); details: bacterial two-hybrid lacZ, SD 0.48
# [15] = system: OZ124 (CF877R) (synthetic); details: bacterial two-hybrid lacZ, SD 0.20
# [16] = system: OZ123 (CF877R) (synthetic); details: bacterial two-hybrid lacZ, SD 0.63
# [17] = system: OZ119 (CF877R) (synthetic); details: bacterial two-hybrid lacZ, SD 0.35
# [18] = system: OZ134 (CF877R) (synthetic); details: bacterial two-hybrid lacZ, SD 0.19
# [19] = system: OZ139 (CF877R) (synthetic); details: bacterial two-hybrid lacZ, SD 0.03
# [20] = system: OZ137 (CF877R) (synthetic); details: bacterial two-hybrid lacZ, SD 0.04
# [21] = system: OZ128 (CF877R) (synthetic); details: bacterial two-hybrid lacZ, SD 0.07
# [22] = system: OZ126 (CF877R) (synthetic); details: bacterial two-hybrid lacZ, SD 0.28
# [23] = system: OZ121 (CF877R) (synthetic); details: bacterial two-hybrid lacZ, SD 0.19
# [24] = system: OZ138 (CF877R) (synthetic); details: bacterial two-hybrid lacZ, SD 0.41
# [25] = system: OZ120 (CF877R) (synthetic); details: bacterial two-hybrid lacZ, SD 0.01
# [26] = system: OZ129 (CF877R) (synthetic); details: bacterial two-hybrid lacZ, SD 0.07
# [27] = system: OZ131 (CF877R) (synthetic); details: bacterial two-hybrid lacZ, SD 0.12
# [28] = system: OZ133 (CF877R) (synthetic); details: bacterial two-hybrid lacZ, SD 0.05
# [29] = system: OZ135 (CF877R) (synthetic); details: bacterial two-hybrid lacZ, SD 0.07
# [30] = system: OZ136 (CF877R) (synthetic); details: bacterial two-hybrid lacZ, SD 0.06
# [31] = system: OZ141 (CF877R) (synthetic); details: bacterial two-hybrid lacZ, SD 0.08
# [32] = system: OZ125 (CF877R) (synthetic); details: bacterial two-hybrid lacZ, SD 0.85
# [33] = system: OZ122 (CF877R) (synthetic); details: bacterial two-hybrid lacZ, SD 0.59
# [34] = system: OZ142 (CF877R) (synthetic); details: bacterial two-hybrid lacZ, SD 0.16
# [35] = system: OZ130 (CF877R) (synthetic); details: bacterial two-hybrid lacZ, SD 0.22
sequence,measurement,setting,value
GTGGAATTA (double strand) [CF877L half-site],activity (fold activation),[1],2.52
same,activity (fold activation),[2],3.87
same,activity (fold activation),[3],1.92
same,activity (fold activation),[4],2.2
same,activity (fold activation),[5],2.71
same,activity (fold activation),[6],3.55
same,activity (fold activation),[7],2.83
same,activity (fold activation),[8],2.95
same,activity (fold activation),[9],1.61
same,activity (fold activation),[10],2.31
same,activity (fold activation),[11],2.53
same,activity (fold activation),[12],1.61
GAGTGGTTA (double strand) [CF877R half-site],activity (fold activation),[13],1.6
same,activity (fold activation),[14],2.99
same,activity (fold activation),[15],4.41
same,activity (fold activation),[16],5.03
same,activity (fold activation),[17],2.78
same,activity (fold activation),[18],3.71
same,activity (fold activation),[19],2.74
same,activity (fold activation),[20],2.26
same,activity (fold activation),[21],2.12
same,activity (fold activation),[22],2.57
same,activity (fold activation),[23],2.91
same,activity (fold activation),[24],2.52
same,activity (fold activation),[25],2.53
same,activity (fold activation),[26],2.55
same,activity (fold activation),[27],2.08
same,activity (fold activation),[28],3.24
same,activity (fold activation),[29],2.25
same,activity (fold activation),[30],2.16
same,activity (fold activation),[31],2.87
same,activity (fold activation),[32],4
same,activity (fold activation),[33],4.72
same,activity (fold activation),[34],2.73
same,activity (fold activation),[35],2.47
